In PMC9482650, “Quantitative fragmentomics allow affinity mapping of interactomes” (Nature Communications, 2022):

Key:
Assay in all cases: holdup assay
Set-up in all cases: key: below the threshold = too weak to quantify, mostly under pKd 3.1 to 4
AHNAK1, Q09666 = molecular target: AHNAK1, Q09666
APBA3_1, O96018 = molecular target: T1, APBA3_1, O96018
T1 sequence (O96018 389-490, limits assumed, looked up): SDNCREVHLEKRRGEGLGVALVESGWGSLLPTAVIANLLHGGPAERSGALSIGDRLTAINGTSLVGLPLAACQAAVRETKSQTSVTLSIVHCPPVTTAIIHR

DLG1_3, Q12959 = molecular target: DLG1_3, Q12959
Chain of DLG1_3, Q12959 (Q12959 457-571): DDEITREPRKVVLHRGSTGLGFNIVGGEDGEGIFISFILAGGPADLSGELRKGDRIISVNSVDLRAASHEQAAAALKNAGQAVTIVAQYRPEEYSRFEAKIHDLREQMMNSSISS

DLG3_3, Q92796 = molecular target: T2, DLG3_3, Q92796
T2 sequence (Q92796 374-475, limits assumed, looked up): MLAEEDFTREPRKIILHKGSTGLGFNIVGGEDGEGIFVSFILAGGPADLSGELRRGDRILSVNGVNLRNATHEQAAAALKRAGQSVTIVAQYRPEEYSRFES

DLG4_3, P78352 = molecular target: DLG4_3, P78352
Chain of DLG4_3, P78352 (P78352 306-403): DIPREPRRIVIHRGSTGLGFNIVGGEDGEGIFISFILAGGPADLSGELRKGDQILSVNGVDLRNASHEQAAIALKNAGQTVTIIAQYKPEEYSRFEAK

DLG5_1, Q8TDM6 = molecular target: DLG5_1, Q8TDM6
Chain of DLG5_1, Q8TDM6 (Q8TDM6 617-713): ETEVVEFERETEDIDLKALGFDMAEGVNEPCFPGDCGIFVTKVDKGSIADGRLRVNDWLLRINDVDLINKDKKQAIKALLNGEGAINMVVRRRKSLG

FRMPD3, Q5JV73 = molecular target: FRMPD3, Q5JV73
Chain of FRMPD3, Q5JV73 (Q5JV73 12-100): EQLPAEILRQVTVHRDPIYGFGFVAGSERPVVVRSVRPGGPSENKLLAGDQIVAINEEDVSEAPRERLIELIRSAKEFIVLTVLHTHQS

GRASP, Q7Z6J2 = molecular target: GRASP, Q7Z6J2
Chain of GRASP, Q7Z6J2 (Q7Z6J2 96-193): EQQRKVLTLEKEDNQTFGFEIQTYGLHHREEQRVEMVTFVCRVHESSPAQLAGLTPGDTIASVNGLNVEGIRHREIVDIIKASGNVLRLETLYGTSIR

IL16_4, Q14005 = molecular target: IL16_4, Q14005
Chain of IL16_4, Q14005 (Q14005 1229-1329): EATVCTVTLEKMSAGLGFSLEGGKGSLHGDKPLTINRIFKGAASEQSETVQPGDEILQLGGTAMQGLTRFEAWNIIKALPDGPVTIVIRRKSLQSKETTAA

Inadl_2, Q8NI35 = molecular target: Inadl_2, Q8NI35
Chain of Inadl_2, Q8NI35 (Q8NI35 238-335): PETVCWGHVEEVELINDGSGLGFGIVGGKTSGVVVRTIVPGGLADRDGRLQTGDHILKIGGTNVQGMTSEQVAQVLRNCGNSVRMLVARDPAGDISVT

Inadl_6, Q8NI35 = molecular target: Inadl_6, Q8NI35
Chain of Inadl_6, Q8NI35 (Q8NI35 1058-1167): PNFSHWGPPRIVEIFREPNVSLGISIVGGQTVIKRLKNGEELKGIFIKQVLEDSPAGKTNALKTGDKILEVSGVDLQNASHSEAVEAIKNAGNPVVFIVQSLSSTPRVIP

Inadl_9, Q8NI35 = molecular target: Inadl_9, Q8NI35
Chain of Inadl_9, Q8NI35 (Q8NI35 1530-1615): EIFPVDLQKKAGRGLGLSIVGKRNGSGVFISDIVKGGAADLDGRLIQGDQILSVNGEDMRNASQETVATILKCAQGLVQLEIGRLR

LIN7B, Q9HAP6 = molecular target: T3, LIN7B, Q9HAP6
T3 sequence (Q9HAP6 88-185, limits assumed, looked up): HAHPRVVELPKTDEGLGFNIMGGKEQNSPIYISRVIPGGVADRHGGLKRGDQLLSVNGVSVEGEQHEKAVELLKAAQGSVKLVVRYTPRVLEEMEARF

LRRC7, Q96NW7 = molecular target: T4, LRRC7, Q96NW7
T4 sequence (Q96NW7 1440-1537, limits assumed, looked up): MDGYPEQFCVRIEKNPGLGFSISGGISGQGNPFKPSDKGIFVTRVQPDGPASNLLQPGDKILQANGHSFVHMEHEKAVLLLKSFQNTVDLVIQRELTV

MAGI1_2, Q96QZ7 = molecular target: MAGI1_2, Q96QZ7
Chain of MAGI1_2, Q96QZ7 (Q96QZ7 456-580): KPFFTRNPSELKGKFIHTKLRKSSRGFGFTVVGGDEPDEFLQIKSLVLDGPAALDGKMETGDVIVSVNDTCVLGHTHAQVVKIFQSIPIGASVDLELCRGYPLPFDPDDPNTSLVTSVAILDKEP

MAST1, Q9Y2H9 = molecular target: MAST1, Q9Y2H9
Chain of MAST1, Q9Y2H9 (Q9Y2H9 962-1065): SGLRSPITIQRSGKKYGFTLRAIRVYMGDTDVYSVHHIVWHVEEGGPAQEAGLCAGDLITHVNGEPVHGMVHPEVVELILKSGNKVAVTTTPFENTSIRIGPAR

MPDZ_10, O75970 = molecular target: T5, MPDZ_10, O75970
T5 sequence (O75970 1624-1722, limits assumed, looked up): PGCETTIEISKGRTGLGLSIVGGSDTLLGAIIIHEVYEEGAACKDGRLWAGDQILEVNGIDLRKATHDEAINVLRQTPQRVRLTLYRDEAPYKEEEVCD

MPP6, Q9NZW5 = molecular target: T6, MPP6, Q9NZW5
T6 sequence (Q9NZW5 125-219, limits assumed, looked up): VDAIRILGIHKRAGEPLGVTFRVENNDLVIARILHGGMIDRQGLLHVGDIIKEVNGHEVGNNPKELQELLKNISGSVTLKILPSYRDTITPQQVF

NHERF2_2, Q15599 = molecular target: NHERF2_2, Q15599
Chain of NHERF2_2, Q15599 (Q15599 142-238): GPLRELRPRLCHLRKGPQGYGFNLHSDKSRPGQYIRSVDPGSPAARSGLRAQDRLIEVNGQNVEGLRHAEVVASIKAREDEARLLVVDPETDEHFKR

NHERF4_1, Q86UT5-2 = molecular target: NHERF4_1, Q86UT5-2
Chain of NHERF4_1, Q86UT5-2 (Q86UT5 other isoform, or with tags, fused parts or gaps): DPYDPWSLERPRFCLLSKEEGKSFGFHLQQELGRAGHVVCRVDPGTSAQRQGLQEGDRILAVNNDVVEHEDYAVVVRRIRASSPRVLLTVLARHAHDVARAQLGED

NOS1, P29475 = molecular target: NOS1, P29475
Chain of NOS1, P29475 (P29475 9-101): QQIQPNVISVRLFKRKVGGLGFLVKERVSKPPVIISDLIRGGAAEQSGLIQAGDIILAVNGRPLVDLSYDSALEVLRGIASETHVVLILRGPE

PARD3B_1, Q8TEW8 = molecular target: T7, PARD3B_1, Q8TEW8
T7 sequence (Q8TEW8 196-299, limits assumed, looked up): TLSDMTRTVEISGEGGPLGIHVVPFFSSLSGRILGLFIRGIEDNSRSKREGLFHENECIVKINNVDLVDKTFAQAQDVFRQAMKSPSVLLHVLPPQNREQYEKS

PARD3_3, Q8TEW0 = molecular target: PARD3_3, Q8TEW0
Chain of PARD3_3, Q8TEW0 (Q8TEW0 582-685): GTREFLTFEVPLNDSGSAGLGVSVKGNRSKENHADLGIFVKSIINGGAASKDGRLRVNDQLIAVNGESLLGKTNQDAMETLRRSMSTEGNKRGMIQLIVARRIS

RADIL, Q96JH8 = molecular target: T8, RADIL, Q96JH8
T8 sequence (Q96JH8 971-1071, limits assumed, looked up): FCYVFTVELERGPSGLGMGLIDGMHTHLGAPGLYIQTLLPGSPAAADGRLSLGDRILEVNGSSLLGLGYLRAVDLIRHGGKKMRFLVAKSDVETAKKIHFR

SNTG2, Q9NY99 = molecular target: T9, SNTG2, Q9NY99
T9 sequence (Q9NY99 68-166, limits assumed, looked up): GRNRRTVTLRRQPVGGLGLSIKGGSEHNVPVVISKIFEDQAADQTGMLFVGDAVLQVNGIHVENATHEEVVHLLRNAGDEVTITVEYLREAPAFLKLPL

SNX27, Q96L92 = molecular target: SNX27, Q96L92
SYNJ2BP, P57105 = molecular target: T10, SYNJ2BP, P57105
T10 sequence (P57105 8-110, limits assumed, looked up): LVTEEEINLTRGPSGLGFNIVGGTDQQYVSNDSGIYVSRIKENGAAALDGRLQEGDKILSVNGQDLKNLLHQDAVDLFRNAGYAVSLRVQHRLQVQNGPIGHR

TJP2_1, Q9UDY2 = molecular target: TJP2_1, Q9UDY2
Chain of TJP2_1, Q9UDY2 (Q9UDY2 24-128): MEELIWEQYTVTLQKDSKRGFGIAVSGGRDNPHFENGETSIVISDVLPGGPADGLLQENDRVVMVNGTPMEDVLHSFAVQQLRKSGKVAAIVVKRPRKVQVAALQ

[1] = plain residues with an end cap or a label only (N-terminal biotin on a linker: ado-ado)
[2] = modified: phospho on T at position -2 from the C-terminal residue

Chain of AHNAK1, Q09666 (Q09666 4-100): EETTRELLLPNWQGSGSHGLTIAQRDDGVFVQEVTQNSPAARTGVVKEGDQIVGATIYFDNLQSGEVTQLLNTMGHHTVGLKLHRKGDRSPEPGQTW

Binder: MQHQRTHTRV [ZSCAN30, Q86W11]
- pKd (AHNAK1, Q09666; [1]): below the threshold
- pKd (APBA3_1, O96018; [1]): below the threshold
- pKd (DLG1_3, Q12959; [1]): 3.81
- pKd (DLG3_3, Q92796; [1]): 4.3
- pKd (DLG4_3, P78352; [1]): 4.22
- pKd (DLG5_1, Q8TDM6; [1]): below the threshold
- pKd (FRMPD3, Q5JV73; [1]): below the threshold
- pKd (GRASP, Q7Z6J2; [1]): 4.34
- pKd (IL16_4, Q14005; [1]): below the threshold
- pKd (Inadl_2, Q8NI35; [1]): below the threshold
- pKd (Inadl_6, Q8NI35; [1]): below the threshold
- pKd (Inadl_9, Q8NI35; [1]): 3.62
- pKd (LIN7B, Q9HAP6; [1]): below the threshold
- pKd (LRRC7, Q96NW7; [1]): below the threshold
- pKd (MAGI1_2, Q96QZ7; [1]): 4.87
- pKd (MAST1, Q9Y2H9; [1]): 3.54
- pKd (MPDZ_10, O75970; [1]): 3.7
- pKd (MPP6, Q9NZW5; [1]): below the threshold
- pKd (NHERF2_2, Q15599; [1]): 3.67
- pKd (NHERF4_1, Q86UT5-2; [1]): below the threshold
- pKd (NOS1, P29475; [1]): 3.91
- pKd (PARD3B_1, Q8TEW8; [1]): below the threshold
- pKd (PARD3_3, Q8TEW0; [1]): below the threshold
- pKd (RADIL, Q96JH8; [1]): 4.14
- pKd (SNTG2, Q9NY99; [1]): 3.86
- pKd (SNX27, Q96L92; [1]): 4.38
- pKd (SYNJ2BP, P57105; [1]): 4.28
- pKd (TJP2_1, Q9UDY2; [1]): 4.16

Binder: RQKEVRESKC [SCN8A, Q9UQD0]
- pKd (AHNAK1, Q09666; [1]): below the threshold
- pKd (APBA3_1, O96018; [1]): below the threshold
- pKd (DLG1_3, Q12959; [1]): 4.13
- pKd (DLG3_3, Q92796; [1]): 3.58
- pKd (DLG4_3, P78352; [1]): 4.6
- pKd (DLG5_1, Q8TDM6; [1]): below the threshold
- pKd (FRMPD3, Q5JV73; [1]): below the threshold
- pKd (GRASP, Q7Z6J2; [1]): below the threshold
- pKd (IL16_4, Q14005; [1]): 3.68
- pKd (Inadl_2, Q8NI35; [1]): below the threshold
- pKd (Inadl_6, Q8NI35; [1]): below the threshold
- pKd (Inadl_9, Q8NI35; [1]): below the threshold
- pKd (LIN7B, Q9HAP6; [1]): 3.78
- pKd (LRRC7, Q96NW7; [1]): below the threshold
- pKd (MAGI1_2, Q96QZ7; [1]): 3.67
- pKd (MAST1, Q9Y2H9; [1]): 4.34
- pKd (MPDZ_10, O75970; [1]): 3.8
- pKd (MPP6, Q9NZW5; [1]): below the threshold
- pKd (NHERF2_2, Q15599; [1]): 3.57
- pKd (NHERF4_1, Q86UT5-2; [1]): 3.91
- pKd (NOS1, P29475; [1]): below the threshold
- pKd (PARD3B_1, Q8TEW8; [1]): below the threshold
- pKd (PARD3_3, Q8TEW0; [1]): below the threshold
- pKd (RADIL, Q96JH8; [1]): below the threshold
- pKd (SNTG2, Q9NY99; [1]): 4.58
- pKd (SNX27, Q96L92; [1]): 5.19
- pKd (SYNJ2BP, P57105; [1]): 4.23
- pKd (TJP2_1, Q9UDY2; [1]): below the threshold

Binder: EDGESWEYQI [TRPV6, Q9H1D0]
- pKd (AHNAK1, Q09666; [1]): below the threshold
- pKd (APBA3_1, O96018; [1]): below the threshold
- pKd (DLG1_3, Q12959; [1]): below the threshold
- pKd (DLG3_3, Q92796; [1]): below the threshold
- pKd (DLG4_3, P78352; [1]): below the threshold
- pKd (DLG5_1, Q8TDM6; [1]): below the threshold
- pKd (FRMPD3, Q5JV73; [1]): below the threshold
- pKd (GRASP, Q7Z6J2; [1]): below the threshold
- pKd (IL16_4, Q14005; [1]): 3.5
- pKd (Inadl_2, Q8NI35; [1]): 3.97
- pKd (Inadl_6, Q8NI35; [1]): below the threshold
- pKd (Inadl_9, Q8NI35; [1]): 3.83
- pKd (LIN7B, Q9HAP6; [1]): 3.59
- pKd (LRRC7, Q96NW7; [1]): below the threshold
- pKd (MAGI1_2, Q96QZ7; [1]): below the threshold
- pKd (MAST1, Q9Y2H9; [1]): 4.28
- pKd (MPDZ_10, O75970; [1]): below the threshold
- pKd (MPP6, Q9NZW5; [1]): 3.81
- pKd (NHERF2_2, Q15599; [1]): 3.67
- pKd (NHERF4_1, Q86UT5-2; [1]): below the threshold
- pKd (NOS1, P29475; [1]): below the threshold
- pKd (PARD3B_1, Q8TEW8; [1]): 3.85
- pKd (PARD3_3, Q8TEW0; [1]): 5.35
- pKd (RADIL, Q96JH8; [1]): 3.69
- pKd (SNTG2, Q9NY99; [1]): below the threshold
- pKd (SNX27, Q96L92; [1]): below the threshold
- pKd (SYNJ2BP, P57105; [1]): below the threshold
- pKd (TJP2_1, Q9UDY2; [1]): below the threshold

Binder: SSRTRRETQL [HPV16-E6_-2P, P03126]
- pKd (AHNAK1, Q09666; [2]): below the threshold
- pKd (APBA3_1, O96018; [2]): below the threshold
- pKd (DLG1_3, Q12959; [2]): below the threshold
- pKd (DLG3_3, Q92796; [2]): below the threshold
- pKd (DLG4_3, P78352; [2]): below the threshold
- pKd (DLG5_1, Q8TDM6; [2]): below the threshold
- pKd (FRMPD3, Q5JV73; [2]): below the threshold
- pKd (GRASP, Q7Z6J2; [2]): below the threshold
- pKd (IL16_4, Q14005; [2]): below the threshold
- pKd (Inadl_2, Q8NI35; [2]): below the threshold
- pKd (Inadl_6, Q8NI35; [2]): below the threshold
- pKd (Inadl_9, Q8NI35; [2]): below the threshold
- pKd (LIN7B, Q9HAP6; [2]): below the threshold
- pKd (LRRC7, Q96NW7; [2]): below the threshold
- pKd (MAGI1_2, Q96QZ7; [2]): below the threshold
- pKd (MAST1, Q9Y2H9; [2]): below the threshold
- pKd (MPDZ_10, O75970; [2]): below the threshold
- pKd (MPP6, Q9NZW5; [2]): below the threshold
- pKd (NHERF2_2, Q15599; [2]): below the threshold
- pKd (NHERF4_1, Q86UT5-2; [2]): 4.37
- pKd (NOS1, P29475; [2]): 3.63
- pKd (PARD3B_1, Q8TEW8; [2]): below the threshold
- pKd (PARD3_3, Q8TEW0; [2]): below the threshold
- pKd (RADIL, Q96JH8; [2]): below the threshold
- pKd (SNTG2, Q9NY99; [2]): below the threshold
- pKd (SNX27, Q96L92; [2]): below the threshold
- pKd (SYNJ2BP, P57105; [2]): below the threshold
- pKd (TJP2_1, Q9UDY2; [2]): below the threshold
